Assay results reported in publication PMC5524322, “Species A rotavirus NSP3 acquires its translation inhibitory function prior to stable dimer formation” (PLoS ONE, 2017).

Target: the molecule itself
Assay: non-dissociating Western blot (WB-ND); lysates of vaccinia-infected BSC-1 cells (18 hpi) mixed with 2x non-dissociating sample buffer (62.5 mM Tris-HCl pH 6.8, 0.8% SDS, 20% glycerol), 30 min on ice, not boiled; 12% SDS-PAGE in a cold room; blot with anti-NSP3 rat serum; stable dimer band (68 kDa) told apart from monomer/dimerization intermediate band (34 kDa); cells with MG132 or DMSO, in one experiment with …

Protein	stoichiometry N	fold lower accumulation of stable dimers than NSP3_(Y192A) [fold]	fold lower accumulation of stable dimers than wtNSP3 [fold]
wild type NSP3 (non-structural protein 3) of simian species A rotavirus strain RRV (natural protein, also called wtNSP3; RRV NSP3) MESTQQMASSIINSSFEAAVVAATSTLELMGIQYDYNEVYTRVKSKFDLVMDDSGVKNNLIGKAITIDQALNGKFSSAIRNRNWMTDSRTVAKLDEDVNKLRIMLSSKGIDQKMRVLNACFSVKRIPGKSSSIVKCTRLMKDKLERGEVEVDDSFVEEKMEVDTIDWKSRYEQLEKRFESLKHRVNEKYNHWVLKARKVNENMNSLQNVISQQQAHINELQMYNNKLERDLQSKIGSVVSSIEWYLRSMELSDDVKSDIEQQLNSIDQLNPVNAIDDFESILRNLISDYDRLFIMFKGLLQQCNYTYTYE	2		
NSP3 W170A of rotavirus strain RRV (natural protein, also called vNSP3_(W170A)) MESTQQMASSIINSSFEAAVVAATSTLELMGIQYDYNEVYTRVKSKFDLVMDDSGVKNNLIGKAITIDQALNGKFSSAIRNRNWMTDSRTVAKLDEDVNKLRIMLSSKGIDQKMRVLNACFSVKRIPGKSSSIVKCTRLMKDKLERGEVEVDDSFVEEKMEVDTIDAKSRYEQLEKRFESLKHRVNEKYNHWVLKARKVNENMNSLQNVISQQQAHINELQMYNNKLERDLQSKIGSVVSSIEWYLRSMELSDDVKSDIEQQLNSIDQLNPVNAIDDFESILRNLISDYDRLFIMFKGLLQQCNYTYTYE		16	9
